Article PMC4081063, “The conformational state of the nucleosome entry–exit site modulates TATA box-specific TBP binding”

Tests used:
[1] = target: T1, TBP (human TATA binding protein) (Homo sapiens, UniProt P20226 1-339); assay: bulk FRET; 150 mM KCl, 4 mM Mg2+; 20 mM Tris pH 7.9, 4 mM MgCl2, 1 mM DTT, 5% glycerol, 5-150 mM KCl as indicated, 1 nM labeled DNA (1-5 nM in Results), 20 min; 25 C (37 C tested); conditions: protein: recombinant, blunt
[2] = target: T1, TBP (human TATA binding protein); assay: bulk FRET; 50 mM KCl, 4 mM Mg2+; 20 mM Tris pH 7.9, 4 mM MgCl2, 1 mM DTT, 5% glycerol, 5-150 mM KCl as indicated, 1 nM labeled DNA (1-5 nM in Results), 20 min; 25 C (37 C tested); conditions: protein: recombinant; label: 5' ends labeled with donor (Atto-488) and acceptor (Atto-633 or Atto-647N); blunt
[3] = target: T1, TBP (human TATA binding protein); assay: bulk FRET; similar to TATA-14E; stoichiometry 1.1 TBP:DNA; 20 mM Tris pH 7.9, 4 mM MgCl2, 1 mM DTT, 5% glycerol, 5-150 mM KCl as indicated, 1 nM labeled DNA (1-5 nM in Results), 20 min; 25 C (37 C tested); conditions: protein: recombinant; label: 5' ends labeled with donor and acceptor; blunt
[4] = target: T1, TBP (human TATA binding protein); assay: bulk FRET; 5-150 mM KCl; biphasic at low salt; similar at 25 and 37 C; 20 mM Tris pH 7.9, 4 mM MgCl2, 1 mM DTT, 5% glycerol, 5-150 mM KCl as indicated, 1 nM labeled DNA (1-5 nM in Results), 20 min; 25 C (37 C tested); conditions: protein: recombinant; label: 5' donor and internal amino-dT acceptor 18 bp away, same strand; blunt

T1 sequence (P20226 whole entry): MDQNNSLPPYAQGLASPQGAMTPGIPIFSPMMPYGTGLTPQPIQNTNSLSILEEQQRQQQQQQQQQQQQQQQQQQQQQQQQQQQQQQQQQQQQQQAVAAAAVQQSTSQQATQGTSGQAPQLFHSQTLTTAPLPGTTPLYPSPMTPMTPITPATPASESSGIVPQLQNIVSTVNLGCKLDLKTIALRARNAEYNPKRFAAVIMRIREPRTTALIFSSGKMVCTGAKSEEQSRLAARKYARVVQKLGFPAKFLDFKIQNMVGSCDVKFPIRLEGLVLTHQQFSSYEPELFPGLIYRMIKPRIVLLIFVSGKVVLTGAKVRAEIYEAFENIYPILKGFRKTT

B1: TATA-14E (dsDNA)
DNA 1: GGCTATAAAAGGGG
DNA 2: CCCCTTTTATAGCC
- Kd ([1]; label: 5' ends labeled with donor (Atto-488) and acceptor (Atto-633 or Atto-647N)): 10 ± 3 nM
- Kd [2]: 5 ± 1 nM

B2: TATA-14E* (dsDNA)
DNA 1: GGGTATAAAAGGGG
DNA 2: CCCCTTTTATACCC
- binding result [3]: binds

B3: TATA-14I (dsDNA)
DNA 1: TGGTATAAAAGGGTGCGGACACGTG
DNA 2: CACGTGTCCGCACCCTTTTATACCA
- Kd ([1]; label: 5' donor and internal amino-dT acceptor 14 bp away, same strand): 6 ± 1 nM

B4: TATA-18I (dsDNA)
DNA 1: TGGGGTATAAAAGGGGGTGGACACGTG
DNA 2: CACGTGTCCACCCCCTTTTATACCCCA
- binding result [4]: binds
